In assay [1] the target is human BTLA Fc (human) (UniProt Q7Z6A9). The experiment in a line: SPR, BTLA Fc immobilised on CM5, bivalent fit. For orientation: Surface plasmon resonance follows binding to a sensor surface in real time, without labels.
Assay [2] has the same target. As to the kind of experiment: SPR, BTLA Fc immobilised on CM5, monovalent (Langmuir) fit.

In the assay with human BTLA Fc (human) [1], rhesus CMV UL144 Fc (Fc fusion) displayed a ka1 (bivalent analysis) of 16600 M⁻¹ s⁻¹, a kd1 (bivalent analysis) of 0.031 s⁻¹ and a kd2 (bivalent analysis) of 0.129 s⁻¹. In the assay with human BTLA Fc (human) [2], this substance registered a Kd of 1.3 µM, a koff of 0.0295 s⁻¹ and an on-rate constant (kon) of 22800 M⁻¹ s⁻¹.

The term Kd denotes the equilibrium constant for the complex coming apart. For orientation: koff means the rate constant with which the complex falls apart. Usually kon stands for the second-order rate constant of association. Low values mean slow association, high ones fast association.

For the origin of these results see patent US20210122788A1.
